Experimental data taken from article PMC9352680, “A comprehensive thermodynamic model for RNA binding by the Saccharomyces cerevisiae Pumilio protein PUF4”.

T1: PUF4 RNA-binding domain (Saccharomyces cerevisiae, UniProt P25339 537-888)
T1 sequence: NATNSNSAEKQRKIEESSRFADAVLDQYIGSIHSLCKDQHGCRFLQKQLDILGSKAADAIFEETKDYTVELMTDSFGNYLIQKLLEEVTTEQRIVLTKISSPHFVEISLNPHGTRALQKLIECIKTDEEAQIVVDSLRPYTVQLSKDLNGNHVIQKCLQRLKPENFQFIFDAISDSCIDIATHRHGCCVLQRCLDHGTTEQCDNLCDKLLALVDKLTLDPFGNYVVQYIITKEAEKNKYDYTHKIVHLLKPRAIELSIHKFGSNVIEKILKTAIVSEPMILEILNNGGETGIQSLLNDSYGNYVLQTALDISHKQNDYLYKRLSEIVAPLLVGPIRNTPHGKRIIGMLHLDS


Biological target: T1, PUF4 RNA-binding domain
Experiment: Mg; RNA-MaP; 20 mM Na-HEPES pH 7.4, 30 mM KOAc, 0.75 mM MgCl2, 0.1% Tween-20, 5% glycerol, 0.1 mg/mL BSA, 2 mM DTT; 25 C; 0.0125-409.6 nM protein
Conditions: tags: N-His6-TEV cleaved; C-SNAP kept, Cy3B-labelled; label: tethered on chip by stalled RNA polymerase

| Binder | Kd [nM] |
| --- | --- |
| Id_iii_S2_P5E.9_K5.5_C5.3_H5.1_A5.2_F5.2_T5.2_[A12T] (ssRNA) RNA: UUUGAUUAAUAUGAUAUCGUUCUUUCUUCUUGUAAUAAAAUUUUCUUUCUCGAUAUCAUAUUAAUCUUU | 158 |
| UCUCUUGGUAUAUAUCUCUU (ssRNA) [Ia_S1_P3E.1_K3.1_C3.1_H3.1_[T1G]_A3.1_F3.1_T3.1] | 2290 |
| Ic_S2_P3E.1_K3.1_C3.1_H3.1_A3.1_F3.1_[A8G]_T3.1 (ssRNA) RNA: UUUGAUUAAUAUGAUAUCGUUCUUUCUUGUAUAUGUUCUUUCUCGAUAUCAUAUUAAUCUUU | 11.7 |
| UCUCUUUGUAAAAUUAUCUCUU (ssRNA) [Ib_S1_P5E.1_K5.1_C5.1_H5.1_A5.1_[T5A]_[T6A]_F5.1_T5.1] | 10.6 |
| ACAAACCCUUAUAUAUAUAACAAAC (ssRNA) [Id_iii_S3_P3E.6_K3.2_C3.3_[T-3C]_H3.2_A3.1_F3.1_T3.2] | 446 |
| ACAAACUUUUAUAUAUAUAACAAAC (ssRNA) [Id_iii_S3_P3E.6_K3.2_C3.3_[C-2T]_H3.2_A3.1_F3.1_T3.2] | 598 |
| ACAAACUCCUAUAUAUAUAACAAAC (ssRNA) [Id_iii_S3_P3E.6_K3.2_C3.3_[T-1C]_H3.2_A3.1_F3.1_T3.2] | 218 |
| ACAAACUCUUAUAUAUACAACAAAC (ssRNA) [Id_iii_S3_P3E.6_K3.2_C3.3_H3.2_A3.1_F3.1_T3.2_[T9C]] | 693 |
| ACAAACACUACACUAUAUAACAAAC (ssRNA) [Id_iii_S3_P3E.7_K3.3_C3.3_[T-3A]_H3.3_A3.1_F3.1_T3.2] | 760 |
| ACAAACUAUACACUAUAUAACAAAC (ssRNA) [Id_iii_S3_P3E.7_K3.3_C3.3_[C-2A]_H3.3_A3.1_F3.1_T3.2] | 32.5 |
| ACAAACUCAACACUAUAUAACAAAC (ssRNA) [Id_iii_S3_P3E.7_K3.3_C3.3_[T-1A]_H3.3_A3.1_F3.1_T3.2] | 1780 |
| ACAAACUCUACACUAUAUUACAAAC (ssRNA) [Id_iii_S3_P3E.7_K3.3_C3.3_H3.3_A3.1_F3.1_T3.2_[A10T]] | 922 |
| ACAAACUCCACACUAUUAGUACAAAC (ssRNA) [Id_iii_S3_P4E.7_K4.3_C4.3_[T-1C]_H4.3_A4.1_F4.1_T4.2] | > 2300 |
| Id_iii_S4_P3E.5_K3.1_C3.3_[C-2G]_H3.1_A3.1_F3.1_T3.2 (ssRNA) RNA: UUUGACAACUGAUCGUUCUUUCUUGUUGUAUAUAUAUUCUUUCUCGAUCAGUUGUCUUU | 1.77 |
| UCUCUUUGUAGUCUUAUCUCUU (ssRNA) [Ib_S1_P5E.1_K5.1_C5.1_H5.1_A5.1_[T5G]_[A7C]_F5.1_T5.1] | 93.7 |
| Id_iii_S4_P3E.5_K3.1_C3.3_[T-1A]_H3.1_A3.1_F3.1_T3.2 (ssRNA) RNA: UUUGACAACUGAUCGUUCUUUCUUCAUGUAUAUAUAUUCUUUCUCGAUCAGUUGUCUUU | 1.71 |
| Id_iii_S4_P3E.6_K3.2_C3.3_[C-2G]_H3.2_A3.1_F3.1_T3.2 (ssRNA) RNA: UUUGACAACUGAUCGUUCUUUCUUGUUAUAUAUAUAUUCUUUCUCGAUCAGUUGUCUUU | 20.4 |
| Id_iii_S4_P3E.6_K3.2_C3.3_[T-1C]_H3.2_A3.1_F3.1_T3.2 (ssRNA) RNA: UUUGACAACUGAUCGUUCUUUCUUCCUAUAUAUAUAUUCUUUCUCGAUCAGUUGUCUUU | 33.1 |
| Id_iii_S4_P3E.6_K3.2_C3.3_H3.2_A3.1_F3.1_T3.2_[A10C] (ssRNA) RNA: UUUGACAACUGAUCGUUCUUUCUUCUUAUAUAUAUCUUCUUUCUCGAUCAGUUGUCUUU | 131 |
| Id_iii_S4_P3E.7_K3.3_C3.3_[T-3A]_H3.3_A3.1_F3.1_T3.2 (ssRNA) RNA: UUUGACAACUGAUCGUUCUUUCUACUACACUAUAUAUUCUUUCUCGAUCAGUUGUCUUU | 364 |
| Id_iii_S4_P3E.7_K3.3_C3.3_[C-2G]_H3.3_A3.1_F3.1_T3.2 (ssRNA) RNA: UUUGACAACUGAUCGUUCUUUCUUGUACACUAUAUAUUCUUUCUCGAUCAGUUGUCUUU | 0.724 |
| Id_iii_S4_P3E.7_K3.3_C3.3_[T-1A]_H3.3_A3.1_F3.1_T3.2 (ssRNA) RNA: UUUGACAACUGAUCGUUCUUUCUUCAACACUAUAUAUUCUUUCUCGAUCAGUUGUCUUU | 137 |
| Id_iii_S4_P3E.7_K3.3_C3.3_H3.3_A3.1_F3.1_T3.2_[A10C] (ssRNA) RNA: UUUGACAACUGAUCGUUCUUUCUUCUACACUAUAUCUUCUUUCUCGAUCAGUUGUCUUU | 611 |
| Id_iii_S4_P3E.8_K3.4_C3.3_[T-1C]_H3.1_A3.2_F3.1_T3.2 (ssRNA) RNA: UUUGACAACUGAUCGUUCUUUCUUCCUGUAAAUAUAUUCUUUCUCGAUCAGUUGUCUUU | 2.97 |
| Id_iii_S4_P3E.8_K3.4_C3.3_H3.1_A3.2_F3.1_T3.2_[A10G] (ssRNA) RNA: UUUGACAACUGAUCGUUCUUUCUUCUUGUAAAUAUGUUCUUUCUCGAUCAGUUGUCUUU | 14.2 |

| Binder | Kd [nM] |
| --- | --- |
| UCUCUUUGUAGUUUUAUCUCUU (ssRNA) [Ib_S1_P5E.1_K5.1_C5.1_H5.1_A5.1_[T5G]_[A7T]_F5.1_T5.1] | 27.2 |
| Id_iii_S4_P3E.9_K3.5_C3.3_[T-3G]_H3.1_A3.2_F3.2_T3.2 (ssRNA) RNA: UUUGACAACUGAUCGUUCUUUCUGCUUGUAAAAAUAUUCUUUCUCGAUCAGUUGUCUUU | 25.8 |
| Id_iii_S4_P3E.9_K3.5_C3.3_[C-2T]_H3.1_A3.2_F3.2_T3.2 (ssRNA) RNA: UUUGACAACUGAUCGUUCUUUCUUUUUGUAAAAAUAUUCUUUCUCGAUCAGUUGUCUUU | 34.5 |
| Id_iii_S4_P3E.9_K3.5_C3.3_[T-1A]_H3.1_A3.2_F3.2_T3.2 (ssRNA) RNA: UUUGACAACUGAUCGUUCUUUCUUCAUGUAAAAAUAUUCUUUCUCGAUCAGUUGUCUUU | 48.5 |
| Id_iii_S4_P3E.9_K3.5_C3.3_H3.1_A3.2_F3.2_T3.2_[A10C] (ssRNA) RNA: UUUGACAACUGAUCGUUCUUUCUUCUUGUAAAAAUCUUCUUUCUCGAUCAGUUGUCUUU | 308 |
| Id_iii_S4_P4E.5_K4.1_C4.3_[C-2A]_H4.1_A4.1_F4.1_T4.2 (ssRNA) RNA: UUUGACAACUGAUCGUUCUUUCUUAUUGUAUAUUAGUUUCUUUCUCGAUCAGUUGUCUUU | 0.43 |
| Id_iii_S4_P4E.6_K4.2_C4.3_[T-1A]_H4.2_A4.1_F4.1_T4.2 (ssRNA) RNA: UUUGACAACUGAUCGUUCUUUCUUCAUAUAUAUUAGUUUCUUUCUCGAUCAGUUGUCUUU | 7.5 |
| Id_iii_S4_P4E.7_K4.3_C4.3_[C-2G]_H4.3_A4.1_F4.1_T4.2 (ssRNA) RNA: UUUGACAACUGAUCGUUCUUUCUUGUACACUAUUAGUUUCUUUCUCGAUCAGUUGUCUUU | 1.75 |
| Id_iii_S4_P4E.7_K4.3_C4.3_[C-2A]_H4.3_A4.1_F4.1_T4.2 (ssRNA) RNA: UUUGACAACUGAUCGUUCUUUCUUAUACACUAUUAGUUUCUUUCUCGAUCAGUUGUCUUU | 91.7 |
| Id_iii_S4_P4E.7_K4.3_C4.3_H4.3_A4.1_F4.1_T4.2_[T11C] (ssRNA) RNA: UUUGACAACUGAUCGUUCUUUCUUCUACACUAUUAGCUUCUUUCUCGAUCAGUUGUCUUU | > 2300 |
| Id_iii_S4_P4E.8_K4.4_C4.3_[T-3C]_H4.1_A4.2_F4.1_T4.2 (ssRNA) RNA: UUUGACAACUGAUCGUUCUUUCUCCUUGUAUUUUAGUUUCUUUCUCGAUCAGUUGUCUUU | 0.631 |
| UCUCUUUGUACUGUUAUCUCUU (ssRNA) [Ib_S1_P5E.1_K5.1_C5.1_H5.1_A5.1_[T5C]_[A7G]_F5.1_T5.1] | 7.89 |
| Id_iii_S4_P4E.8_K4.4_C4.3_[C-2T]_H4.1_A4.2_F4.1_T4.2 (ssRNA) RNA: UUUGACAACUGAUCGUUCUUUCUUUUUGUAUUUUAGUUUCUUUCUCGAUCAGUUGUCUUU | 0.755 |
| Id_iii_S4_P4E.8_K4.4_C4.3_[C-2A]_H4.1_A4.2_F4.1_T4.2 (ssRNA) RNA: UUUGACAACUGAUCGUUCUUUCUUAUUGUAUUUUAGUUUCUUUCUCGAUCAGUUGUCUUU | 1.14 |
| Id_iii_S4_P4E.8_K4.4_C4.3_[T-1G]_H4.1_A4.2_F4.1_T4.2 (ssRNA) RNA: UUUGACAACUGAUCGUUCUUUCUUCGUGUAUUUUAGUUUCUUUCUCGAUCAGUUGUCUUU | 1.14 |
| Id_iii_S4_P4E.8_K4.4_C4.3_[T-1C]_H4.1_A4.2_F4.1_T4.2 (ssRNA) RNA: UUUGACAACUGAUCGUUCUUUCUUCCUGUAUUUUAGUUUCUUUCUCGAUCAGUUGUCUUU | 0.819 |
| Id_iii_S4_P4E.8_K4.4_C4.3_H4.1_A4.2_F4.1_T4.2_[G10C] (ssRNA) RNA: UUUGACAACUGAUCGUUCUUUCUUCUUGUAUUUUACUUUCUUUCUCGAUCAGUUGUCUUU | 1.79 |
| Id_iii_S4_P4E.8_K4.4_C4.3_H4.1_A4.2_F4.1_T4.2_[T11C] (ssRNA) RNA: UUUGACAACUGAUCGUUCUUUCUUCUUGUAUUUUAGCUUCUUUCUCGAUCAGUUGUCUUU | 1.04 |
| Id_iii_S4_P5E.5_K5.1_C5.3_H5.1_A5.1_F5.1_T5.2_[A12C] (ssRNA) RNA: UUUGACAACUGAUCGUUCUUUCUUCUUGUAUUAUUAUCUUCUUUCUCGAUCAGUUGUCUUU | 1.71 |
| Id_iii_S4_P5E.5_K5.1_C5.3_H5.1_A5.1_F5.1_T5.2_[A12T] (ssRNA) RNA: UUUGACAACUGAUCGUUCUUUCUUCUUGUAUUAUUAUUUUCUUUCUCGAUCAGUUGUCUUU | 1.28 |
| Id_iii_S4_P5E.7_K5.3_C5.3_[C-2T]_H5.3_A5.1_F5.1_T5.2 (ssRNA) RNA: UUUGACAACUGAUCGUUCUUUCUUUUACACUUAUUAUAUUCUUUCUCGAUCAGUUGUCUUU | 513 |
| Id_iii_S4_P5E.7_K5.3_C5.3_[C-2A]_H5.3_A5.1_F5.1_T5.2 (ssRNA) RNA: UUUGACAACUGAUCGUUCUUUCUUAUACACUUAUUAUAUUCUUUCUCGAUCAGUUGUCUUU | 1020 |
| UCUCUUUGUACUCUUAUCUCUU (ssRNA) [Ib_S1_P5E.1_K5.1_C5.1_H5.1_A5.1_[T5C]_[A7C]_F5.1_T5.1] | 9.68 |
| Id_iii_S4_P5E.7_K5.3_C5.3_[T-1C]_H5.3_A5.1_F5.1_T5.2 (ssRNA) RNA: UUUGACAACUGAUCGUUCUUUCUUCCACACUUAUUAUAUUCUUUCUCGAUCAGUUGUCUUU | 543 |
| Id_iii_S4_P5E.8_K5.4_C5.3_[C-2G]_H5.1_A5.2_F5.1_T5.2 (ssRNA) RNA: UUUGACAACUGAUCGUUCUUUCUUGUUGUAAUAUUAUAUUCUUUCUCGAUCAGUUGUCUUU | 11.1 |
